Source: the supplement of paper PMC10724198
± gives the standard deviation of the averaged measurements.

Assays:
Saccharomyces cerevisiae [1] = assay: protein stability index of tFT-peptide fusion (C-terminal peptide) (PSI (0-1 scale)); higher = more stable (slower turnover)
Method: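 MPS profiling in S. cerevisiae of the tFT-X12 degron library: putative degron peptides plus stable controls, 12 aa, fused to the C-terminus of a sfGFP-mCherry timer. Cells are FACS-sorted into 8 mCherry/sfGFP bins and deep-sequenced. PSI runs from 0 (unstable) to 1 (stable). Backgrounds are wild type, das1Δ and doa10Δ at 30 °C, and wild type, das1Δ, cdc34-1 and cdc53-1 at 37 °C; 2-3 technical replicates each.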

Saccharomyces cerevisiae [2] = assay: as above; details: genetic background: wild type; temperature: 30 C
[3] = genetic background: cdc34-1, temperature: 37 C
[4] = genetic background: cdc53-1, temperature: 37 C
[5] = genetic background: das1 deletion, temperature: 30 C
[6] = genetic background: das1 deletion, temperature: 37 C
[7] = genetic background: doa10 deletion, temperature: 30 C
[8] = genetic background: wild type, temperature: 30 C
[9] = genetic background: wild type, temperature: 37 C
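Note: PSI is a weighted mean of sequencing reads over stability bins, variants kept only with over 10 reads, mCherry proximal and sfGFP distal, peptide attached via GGGS linker.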

Sequence | protein stability index (Saccharomyces cerevisiae [1]; [3]) | protein stability index (Saccharomyces cerevisiae [1]; [4]) | protein stability index (Saccharomyces cerevisiae [1]; [5]) | protein stability index (Saccharomyces cerevisiae [1]; [6]) | protein stability index (Saccharomyces cerevisiae [1]; [7]) | protein stability index (Saccharomyces cerevisiae [1]; [8]) | protein stability index (Saccharomyces cerevisiae [1]; [9]) | protein stability index (Saccharomyces cerevisiae [2])
VCILLVAWCLMG | 0.168 ± 0.023 | 0.289 ± 0.049 | 0.24 ± 0.022 | 0.384 ± 0.0058 | 0.108 ± 0.02 | 0.124 ± 0.02 | 0.1546 ± 0.00053 | 0.217 ± 0.0097
PPLPPPPASVPP | 0.675 ± 0.022 | 0.719 ± 0.025 | 0.641 ± 0.011 | 0.7088 ± 0.0051 | 0.6476 ± 0.0014 | 0.682 ± 0.041 | 0.68 ± 0.03 | 0.503 ± 0.016
ACFLFPSHLLIS | 0.584 ± 0.021 | 0.689 ± 0.0086 | 0.541 ± 0.02 | 0.699 ± 0.021 | 0.165 ± 0.023 | 0.181 ± 0.011 | 0.3022 ± 0.0017 | 0.305 ± 0.0099
FSVLRLVIVSLL | 0.227 ± 0.012 | 0.503 ± 0.067 | 0.35 ± 0.037 | 0.537 ± 0.019 | 0.0564 ± 0.004 | 0.0846 ± 0.04 | 0.0783 ± 0.029 | 0.0995 ± 0.012
VLGPRFCFVCHA | 0.555 ± 0.067 | 0.604 ± 0.03 | 0.444 ± 0.039 | 0.6194 ± 0.0023 | 0.223 ± 0.0071 | 0.253 ± 0.033 | 0.4594 ± 0.003 | 0.3455 ± 0.0025
VCMHIVLLAASP | 0.244 ± 0.02 | 0.317 ± 0.017 | 0.187 ± 0.0068 | 0.284 ± 0.014 | 0.201 ± 0.028 | 0.202 ± 0.021 | 0.263 ± 0.011 | 0.193 ± 0.002
LCLLFLSFFFVC | 0.464 ± 0.0083 | 0.515 ± 0.014 | 0.374 ± 0.037 | 0.555 ± 0.086 | 0.229 ± 0.015 | 0.234 ± 0.027 | 0.361 ± 0.0065 | 0.307 ± 0.0056
GGWSLFCIVVVV | 0.111 ± 0.039 | 0.171 ± 0.0092 | 0.179 ± 0.029 | 0.306 ± 0.0031 | 0.167 ± 0.013 | 0.173 ± 0.035 | 0.253 ± 0.0092 | 0.268 ± 0.074
CFPFYVSCLLVL | 0.3061 ± 0.0023 | 0.311 ± 0.0064 | 0.281 ± 0.029 | 0.405 ± 0.019 | 0.25 ± 0.0066 | 0.256 ± 0.02 | 0.351 ± 0.0055 | 0.321 ± 0.027
RYTWHGICIVTR | 0.43107 ± 0.00014 | 0.456 ± 0.013 | 0.312 ± 0.027 | 0.4805 ± 0.0035 | 0.285 ± 0.0063 | 0.313 ± 0.019 | 0.476 ± 0.0052 | 0.4401 ± 0.0033
GFVISSCRLFIL | 0.581 ± 0.052 | 0.632 ± 0.0072 | 0.59 ± 0.022 | 0.669 ± 0.011 | 0.272 ± 0.021 | 0.264 ± 0.024 | 0.3989 ± 0.0031 | 0.337 ± 0.044
FVMTYCLMSVSK | 0.0323 ± 0.018 | 0.0364 ± 0.002 | 0.0746 ± 0.02 | 0.0531 ± 0.038 | 0.063 ± 0.0057 | 0.07 ± 0.016 | 0.0478 ± 0.025 | 0.0465 ± 0.035
TEVGAWLLLCRC | 0.271 ± 0.051 | 0.307 ± 0.01 | 0.268 ± 0.034 | 0.403 ± 0.02 | 0.231 ± 0.0043 | 0.277 ± 0.017 | 0.385 ± 0.0097 | 0.363 ± 0.009
VVVFGWIGYLYL | 0.366 ± 0.028 | 0.499 ± 0.05 | 0.311 ± 0.044 | 0.511 ± 0.021 | 0.282 ± 0.019 | 0.288 ± 0.044 | 0.482 ± 0.062 | 0.327 ± 0.071
FGPRLLRVMRLL | 0.562 ± 0.017 | 0.712 ± 0.018 | 0.639 ± 0.018 | 0.7306 ± 0.0047 | 0.128 ± 0.017 | 0.157 ± 0.044 | 0.207 ± 0.061 | 0.22 ± 0.04
FCGWLGVYLVKG | 0.5909 ± 0.001 | 0.6581 ± 0.00083 | 0.484 ± 0.026 | 0.656 ± 0.0023 | 0.481 ± 0.035 | 0.49 ± 0.015 | 0.668 ± 0.062 | 0.494 ± 0.076
VPTRRRGNRRPA | 0.673 ± 0.022 | 0.7259 ± 0.0048 | 0.639 ± 0.021 | 0.725 ± 0.018 | 0.641 ± 0.011 | 0.653 ± 0.015 | 0.706 ± 0.02 | 0.788 ± 0.03
NECLSSKWLRIC | 0.399 ± 0.013 | 0.661 ± 0.032 | 0.631 ± 0.029 | 0.726 ± 0.025 | 0.0791 ± 0.032 | 0.111 ± 0.039 | 0.147 ± 0.035 | 0.185 ± 0.0041
VWLAWCIVGGLG | 0.472 ± 0.0083 | 0.5494 ± 0.0026 | 0.386 ± 0.024 | 0.5441 ± 0.0026 | 0.352 ± 0.015 | 0.369 ± 0.028 | 0.523 ± 0.0062 | 0.428 ± 0.03
